# Substrate: N[C@@H](CCC(=O)O)C(=O)O
# Assay: purified protein
# Details: 0.1-1.0 mM NADP, 50 mM Tris, pH 7.5, 293 K, 20.0 °C
protein,measurement,value
glutamate dehydrogenase (GDH) (Thermococcus profundus) (protein) MVEIDPFEMAVKQLERAAQYMDISEEALEWLKKPMRIVEVSVPIEMDDGSVKVFTGFRVQHNWARGPTKGGIRWHPAETLSTVKALATWMTWKVAVVDLPYGGGKGGIIVNPKELSEREQERLARAYIRAVYDVIGPWTDIPAPDVYTNPKIMGWMMDEYETIMRRKGPAFGVITGKPLSIGGSLGRGTATAQGAIFTIREAAKALGIDLKGKKIAVQGYGNAGYYTAKLAKEQLGMTVVAVSDSRGGIYNPDGLDPDEVLKWKREHGSVKDFPGATNITNEELLELEVDVLAPAAIEEVITEKNADNIKAKIVAEVANGPVTPEADDILREKGILQIPDFLCNAGGVTVSYFEWVQNINGYYWTEEEVREKLDKKMTKAFWEVYNTHKDKNIHMRDAAYVVAVSRVYQAMKDRGWVKK,Km,2380 ± 24 µM
same,kcat,2.78 ± 0.00 s⁻¹
